Laboratory results taken from PMC3630103, “Development of a Highly Protective Combination Monoclonal Antibody Therapy against Chikungunya Virus” (PLoS Pathogens, 2013).

Experiments:
[1] = molecular target: CHIKV pE2-E1 (E3-E2-E1) of the CHIKV-LR strain (Chikungunya virus La Reunion 2006 OPY-1 …, strain); assay: cell-based or functional assay
CHIKV 181-25 virion = molecular target: T1, CHIKV 181-25 virion (Chikungunya virus, strain 181/25 …, UniProt Q88628, strain); assay: ELISA; virion capture competition ELISA: plates coated with 5 µg/ml CHK-65, 3x10^6 FFU of CHIKV 181-25 captured, incubated with mouse MAbs for one hour, washed, then 125 ng/ml hu-CHK-152, detected with biotin-labeled goat anti-human antibody and HRP-streptavidin; conditions: one partner purified
T1 construct: E2 envelope glycoprotein of Chikungunya virus strain 181-25, on virions; E1 envelope glycoprotein of Chikungunya virus strain 181-25, on virions; Whole virus particle captured on the plate by the MAb CHK-65; the capsid protein inside the particle is not written as a chain; also called CHIKV virion; virions; copies: 240 + 240

B1: CHK-263 (mouse monoclonal antibody) (antibody, V domains shown)
VH: QVQLQQSGAELVKPGASVKISCKASGYAFSSYWMNWVKQRPGKGLEWIGQIYPGDGDTNYNGKFKGKATLTADKSSSTAYMQLSSLTSEDSAVYFCARGGLTIDYWGQGTTLTVSS
VL: DIVLTQSPATLSVTPGDSVSLSCRASQSISDNLHWYQQKSHESPGLLIKYASQSISGIPSRFSGSGSGTDFTLSINSVETEDFGMYFCQQSNSWPYTFGGGTKLEIK
EC50 of neutralisation of CHIKV-LR (FRNT on NIH 3T3 cells) [1]: 0.002 µg/mL
EC50 of neutralisation of CHIKV-LR (FRNT on Vero cells) [1]: 0.005 µg/mL
EC90 of neutralisation of CHIKV-LR (FRNT on Vero cells) [1]: 0.136 µg/mL

B2: CHK-152 (mouse monoclonal antibody) (antibody, V domains shown)
VH: QVQLQQPGAALVKPGASAMMSCKASGYTFTSYWITWVKQRPGQGLEWIGDIYPGTGRTIYKEKFKTKATLTVDTSSSTAFMQLNSLTSEDSAVYYCARGYGSPYYALDYWGQGTSVTVSS
VL: DIVLTQSPASLAVSQGQRATISCKASQSVDYDGDSYVNWYQQKPGQSPKLLIYDASNLESGIPARFSGSGSGTDFTLNIHPVEEEDVATYYCQESNEDPRTFGGGTKLEIK
notes: mouse VH of CHK-152; mouse IgG heavy-chain constant region; mouse VL of CHK-152; mouse light-chain constant region; also called murine CHK-152; mouse CHK-152
EC50 of neutralisation of CHIKV-LR (FRNT on NIH 3T3 cells) [1]: 0.001 µg/mL
EC50 of neutralisation of CHIKV-LR (FRNT on Vero cells) [1]: 0.002 µg/mL
EC90 of neutralisation of CHIKV-LR (FRNT on Vero cells) [1]: 0.01 µg/mL
binding result (CHIKV 181-25 virion): binds

B3: CHK-166 (mouse monoclonal antibody) (antibody, V domains shown)
VH: EVRLVESGGGLEQPGGSLKLSCAASGFTFSDYFMYWVRQTPEKRLEWVAYISNGGISTFYSDAVKGRFTISRDNARNTLYLQMSRLKSEDTAIYYCVRQVYGQGYFDYWGQGTTLAVSS
VL: QIVLIQSPAIMSASLGERVTMTCTASSSVSSSYLHWYQQKPGSSPKLWIYSSFSLASGVPARFSGSGSGTSYSLTISTMEAEDAATYYCHQYLRSPWTFGGGSKLEIK
EC50 of neutralisation of CHIKV-LR (FRNT on NIH 3T3 cells) [1]: 0.202 µg/mL
EC50 of neutralisation of CHIKV-LR (FRNT on Vero cells) [1]: 0.154 µg/mL
EC90 of neutralisation of CHIKV-LR (FRNT on Vero cells) [1]: 8.6 µg/mL

B4: CHK-102 (mouse monoclonal antibody) (antibody, V domains shown)
VH: QVQLQQSGAELVKPGASVKISCKTSGYAFSSFWMHWVKQRPGKGLEWIGQIYPGDGDTNYNGKFKDKATLTADKSSNTAYMQLTSLTSEDSAVYFCARNLLFDYWGQGTTLTVSS
VL: EILMTQSPAILSVSPGERVSFSCRASQSIGSNIHWYQQRTNGSPRLLIKYASESISGIPSRFSGSGSGTDFTLSINSVESEDIADYYCQQNNIWPFTFGSGTKLEIK
EC50 of neutralisation of CHIKV-LR (FRNT on NIH 3T3 cells) [1]: 0.03 µg/mL
EC50 of neutralisation of CHIKV-LR (FRNT on Vero cells) [1]: 0.014 µg/mL
EC90 of neutralisation of CHIKV-LR (FRNT on Vero cells) [1]: 0.351 µg/mL
